Reference: PMC8562373 (Biochemistry (Moscow) Supplement. Series B, Biomedical …, 2021)

Biological target: SARS-CoV-2 protein S receptor-binding domain (RBD), original Wuhan strain (SARS-CoV-2, UniProt P0DTC2 331-524)
Experiment: MST

In the case of IEEQAKTFLDKFNHQAEDLFYK [h1-Mpa peptide (h1 with Lys31 modified with 3-mercaptopropionic acid)], the Kd is reported as greater than 1000 µM.

For DKWSAFLKECSTIAQIYPLQEI [h2-Cys peptide (h2 with Gln76 replaced with Cys76)], the Kd was greater than 1000 µM.
